The RNAGym collection of RNA variant scans (doi:10.1093/molbev/msab373)

B1: Azoarcus group I ribozyme (parent)
chain: GUGCCUUGCGCCGGGAAACCACGCAAGGGAUGGUGUCAAAUUCGGCGAAACCUAAGCGCCCGCCCGGGCGUAUGGCAACGCCGAGCCAAGCUUCGGCGCCUGCGCCGAUGAAGGUGUAGAGACUAGACGGCACCCACCUAAGGCAAACGCUAUGGUGAAGGCAUAGUCCAGGGAGUGGCGAAAGUCACACAAACCGG

Variants of: B1
Assay: reverse-splicing fitness (ratio to wild type); higher = more active; in vitro selection; Mg2+ level not given
How it was run: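 An in vitro group I ribozyme library with randomized positions was T7-transcribed and gel-purified. In triplicate, 10 pmol RNA in EPPS pH 7.5 was reacted with 50 pmoles of a 30-nt RNA substrate for 1 h at 37 °C across several added MgCl2 levels (1–48 mM), then stopped with EDTA. Products were reverse transcribed from a substrate-complementary primer, PCR-amplified and sequenced (HiSeq 4000). Fitness is a variant's read proportion after selection over that before, normalised to wild type.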

Going from C82A A111G A120G A145C C150A C169G U176C to C82A A111G A120G A145C C150A C169G U176A, the reverse-splicing fitness rises from 0.0158 to 0.027.

First: C82A A111G A120G A145C C150A C169G U176G
Second: C82A A111G A120G A145U C150A C169U
The reverse-splicing fitness of the first is lower: 0.00565 for the first, 0.00754 for the second.

Going from C82A A111G A120G A145U C150A C169A to C82A A111G A120G A145U C150A C169G, the reverse-splicing fitness rises from 0.00837 to 0.00871.

Going from C82A A111G A120G A145U C150U C169G U176G to C82A A111G A120G A145U C150U C169G U176C, the reverse-splicing fitness rises from 0.00537 to 0.0137.

Going from C82A A111G A120G A145U C150U C169G U176A to C82A A111G A120G A145G C150G C169G U176C, the reverse-splicing fitness falls from 0.014 to 0.0114.

First: C82A A111G A120G A145G C150G C169G U176G
Second: C82A A111G A120G A145G C150G C169G U176A
The reverse-splicing fitness of the first is lower: 0.00614 for the first, 0.0101 for the second.

First: C82A A111G A120G C150U C169G U176C
Second: C82A A111G A120G C150U C169G U176A
The reverse-splicing fitness of the first is higher: 0.0192 for the first, 0.0166 for the second.

First: C82A A111G A120G C150U C169G U176G
Second: C82A A111G A120G A145U C150A C169A U176A
The reverse-splicing fitness of the first is lower: 0.0061 for the first, 0.0161 for the second.

Going from C82A A111G A120G A145U C150A C169A U176G to C82A A111G A120G A145U C150A C169A U176C, the reverse-splicing fitness rises from 0.00585 to 0.0121.

First: C82A A111G A120C C150A U176A
Second: C82A A111G A120C C150A U176G
The reverse-splicing fitness of the first is higher: 0.0133 for the first, 0.0115 for the second.

First: C82A A111G A120C C150A U176C
Second: C82A A111G A120G A145C C150U U176C
The reverse-splicing fitness of the first is higher: 0.0223 for the first, 0.0104 for the second.

First: C82A A111G A120G A145C C150U U176A
Second: C82A A111G A120G A145C C150U U176G
The reverse-splicing fitness of the first is higher: 0.00898 for the first, 0.00504 for the second.

Going from C82A A111G A120G A145C C169G U176C to C82A A111G A120G A145C C169G U176A, the reverse-splicing fitness rises from 0.0178 to 0.0248.

Compared with C82A A111G A120G A145C C169G U176G, C82A A111G A120G A145U C169G is higher in reverse-splicing fitness: 0.0046 for the first, 0.0112 for the second.

Compared with C82A A111G A120G A145U C169U, C82A A111G A120G A145U C169A is lower in reverse-splicing fitness: 0.00927 for the first, 0.00824 for the second.

Compared with C82A A111G A120G A145G C150U C169U, C82A A111G A120G A145G C150U C169A is higher in reverse-splicing fitness: 0.011 for the first, 0.0119 for the second.

Going from C82A A111G A120G A145G C150U C169G to C82A A111G A120G A145U C150A C169G U176C, the reverse-splicing fitness rises from 0.0113 to 0.0169.

Going from C82A A111G A120G A145U C150A C169G U176G to C82A A111G A120G A145U C150A C169G U176A, the reverse-splicing fitness rises from 0.00478 to 0.0145.

Going from C82A A111G A120C C150G U176C to C82A A111G A120C C150G U176A, the reverse-splicing fitness falls from 0.00892 to 0.0064.

Going from C82A A111G A120C C150G U176G to C82A A111G A120G A145U C150G C169A U176C, the reverse-splicing fitness rises from 0.00391 to 0.0101.

Compared with C82A A111G A120G A145U C150G C169A U176G, C82A A111G A120G A145U C150G C169A U176A is higher in reverse-splicing fitness: 0.00526 for the first, 0.00976 for the second.

First: C82A A111G A120G C150G C169A U176A
Second: C82A A111G A120G C150G C169A U176C
The reverse-splicing fitness of the first is lower: 0.0117 for the first, 0.0123 for the second.

Going from C82A A111G A120G C150G C169A U176G to C82A A111G A120G A145C C150U C169U, the reverse-splicing fitness rises from 0.00672 to 0.0082.

Compared with C82A A111G A120G A145C C150U C169A, C82A A111G A120G A145C C150U C169G is lower in reverse-splicing fitness: 0.00986 for the first, 0.00885 for the second.

Compared with C82A A111G A120G A145C C150A C169G, C82A A111G A120G A145C C150A C169A is higher in reverse-splicing fitness: 0.00922 for the first, 0.00942 for the second.

Going from C82A A111G A120G A145C C150A C169U to C82A A111G A120G A145G C169A U176A, the reverse-splicing fitness rises from 0.00881 to 0.0226.

Going from C82A A111G A120G A145G C169A U176C to C82A A111G A120G A145G C169A U176G, the reverse-splicing fitness falls from 0.0254 to 0.00461.

Going from C82A A111G A120C C150U U176C to C82A A111G A120C C150U U176A, the reverse-splicing fitness falls from 0.0238 to 0.0143.

Compared with C82A A111G A120C C150U U176G, C82A A111G A120G C150G C169U U176C is higher in reverse-splicing fitness: 0.01 for the first, 0.0135 for the second.

Going from C82A A111G A120G C150G C169U U176A to C82A A111G A120G C150G C169U U176G, the reverse-splicing fitness falls from 0.0124 to 0.00657.

Going from C82A A111G A120C C150U C169G to C82A A111G A120C C150U C169U, the reverse-splicing fitness rises from 0.00852 to 0.0116.

Compared with C82A A111G A120C C150U C169A, C82A A111G A120C C150G C169G is lower in reverse-splicing fitness: 0.00986 for the first, 0.00727 for the second.

Compared with C82A A111G A120C C150G C169U, C82A A111G A120C C150G C169A is higher in reverse-splicing fitness: 0.00991 for the first, 0.00992 for the second.

Compared with C82A A111G A120C C169U U176A, C82A A111G A120C C169U U176G is lower in reverse-splicing fitness: 0.016 for the first, 0.00535 for the second.

Compared with C82A A111G A120C C169U U176C, C82A A111G A120G C150U C169A is lower in reverse-splicing fitness: 0.0138 for the first, 0.00952 for the second.

Compared with C82A A111G A120G C150U C169U, C82A A111G A120G C150U C169G is higher in reverse-splicing fitness: 0.0102 for the first, 0.0108 for the second.

Going from C82A A111G A120G A145C C150G C169A to C82A A111G A120G A145C C150G C169U, the reverse-splicing fitness falls from 0.00928 to 0.00786.

Compared with C82A A111G A120G A145C C150G C169G, C82A A111G A120G C169U is higher in reverse-splicing fitness: 0.00751 for the first, 0.0111 for the second.

Compared with C82A A111G A120G C169A, C82A A111G A120G C169G is higher in reverse-splicing fitness: 0.0105 for the first, 0.0125 for the second.

First: C82A A111G A120C C150A C169G U176C
Second: C82A A111G A120C C150A C169G U176A
The reverse-splicing fitness of the first is higher: 0.0256 for the first, 0.0219 for the second.

Compared with C82A A111G A120C C150A C169G U176G, C82A A111G A120G C150A C169A U176C is higher in reverse-splicing fitness: 0.00675 for the first, 0.0184 for the second.

First: C82A A111G A120G C150A C169A U176G
Second: C82A A111G A120G C150A C169A U176A
The reverse-splicing fitness of the first is lower: 0.00588 for the first, 0.0228 for the second.
